Assay results: patent US20190225669A1 (ACCELERON PHARMA, published 2019)

Experiments:
Experiment in all cases: Biacore SPR
[1] = biological target: T1, activin B (UniProt P09529 293-407)
T1 sequence (looked up): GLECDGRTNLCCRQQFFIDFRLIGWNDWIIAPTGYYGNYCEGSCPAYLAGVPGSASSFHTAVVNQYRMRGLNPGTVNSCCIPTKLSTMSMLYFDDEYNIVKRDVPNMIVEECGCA
Protocol: (§1) Ligands were injected and allowed to flow over the captured receptor protein.

[2] = biological target: T2, BMP10 (UniProt O95393 317-424)
T2 sequence (looked up): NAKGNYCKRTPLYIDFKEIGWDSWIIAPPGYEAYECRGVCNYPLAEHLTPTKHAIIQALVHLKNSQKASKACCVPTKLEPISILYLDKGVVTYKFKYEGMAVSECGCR
Protocol: as §1

[3] = biological target: T3, GDF8 (UniProt O14793 267-375)
T3 construct: also called myostatin
T3 sequence (looked up): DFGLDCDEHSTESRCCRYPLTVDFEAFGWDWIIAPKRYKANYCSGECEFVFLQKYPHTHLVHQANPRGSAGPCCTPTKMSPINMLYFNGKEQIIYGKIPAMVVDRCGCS
Protocol: as §1

[4] = biological target: T4, BMP9 (UniProt Q9UK05 320-429)
T4 construct: also called GDF2
T4 sequence (looked up): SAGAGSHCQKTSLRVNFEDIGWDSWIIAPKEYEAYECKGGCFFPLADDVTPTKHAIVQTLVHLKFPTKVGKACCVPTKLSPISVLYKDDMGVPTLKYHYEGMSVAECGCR
Protocol: as §1

[5] = biological target: T5, GDF11 (UniProt O95390 299-407)
T5 construct: also called BMP11
T5 sequence (looked up): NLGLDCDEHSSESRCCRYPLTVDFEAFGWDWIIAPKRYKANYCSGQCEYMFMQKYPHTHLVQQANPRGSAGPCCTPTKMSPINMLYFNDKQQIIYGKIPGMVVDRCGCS
Protocol: as §1

[6] = biological target: T6, BMP6 (UniProt P22004 382-513, limits assumed)
T6 sequence (looked up): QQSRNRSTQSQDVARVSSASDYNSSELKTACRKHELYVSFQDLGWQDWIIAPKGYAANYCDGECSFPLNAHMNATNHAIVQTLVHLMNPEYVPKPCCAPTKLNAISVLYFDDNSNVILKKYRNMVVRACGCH
Protocol: as §1

[7] = biological target: T7, GDF3 (UniProt Q9NR23 251-364)
T7 sequence (looked up): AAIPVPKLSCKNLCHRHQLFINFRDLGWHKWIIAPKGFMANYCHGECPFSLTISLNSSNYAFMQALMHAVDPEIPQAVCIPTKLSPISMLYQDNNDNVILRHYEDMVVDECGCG
Protocol: as §1

[8] = biological target: T8, TGFβ2 (human, UniProt P61812 303-414)
T8 construct: Human (PeproTech) is stated for the A549 reporter assay; also called TGF-beta2
T8 sequence (looked up): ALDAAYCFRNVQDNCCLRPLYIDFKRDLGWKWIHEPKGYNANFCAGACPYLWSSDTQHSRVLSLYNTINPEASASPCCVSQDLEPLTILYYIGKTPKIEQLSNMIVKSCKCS
Protocol: (§2) The heteromeric or homomeric protein complexes were independently captured onto the system using an anti-Fc antibody. Ligands were injected and allowed to flow over the captured receptor protein.

[9] = biological target: T9, TGFβ3 (human, UniProt P10600 301-412)
T9 construct: Human (PeproTech) is stated for the A549 reporter assay; also called TGF-beta3
T9 sequence (looked up): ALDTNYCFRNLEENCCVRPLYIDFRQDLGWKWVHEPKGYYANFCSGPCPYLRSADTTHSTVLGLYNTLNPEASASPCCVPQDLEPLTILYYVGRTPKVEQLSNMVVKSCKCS
Protocol: as §2

[10] = biological target: T10, TGFβ1 (human, UniProt P01137 279-390)
T10 construct: Human (PeproTech) is stated for the A549 reporter assay; also called TGF-beta1
Protocol: as §2

T10 sequence (P01137 279-390 limits assumed): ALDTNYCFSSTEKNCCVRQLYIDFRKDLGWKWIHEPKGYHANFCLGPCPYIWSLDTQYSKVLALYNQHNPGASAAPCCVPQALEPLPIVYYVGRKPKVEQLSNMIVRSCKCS

binding result [1]: no binding
binding result [2]: no binding
binding result [3]: no binding
binding result [4]: no binding
binding result [5]: no binding
binding result [6]: no binding
binding result [7]: no binding
binding result [8]: no binding
binding result [9]: no binding
binding result [10]: no binding
B1: ALK5-Fc homodimer (Fc fusion, UniProt P36897 34-126, looked up, not shown: a dimerising Fc or GST)
chain: LQCFCHLCTKDNFTCVTDGLCFVSVTETTDKVIHNSMCIAEIDLIPRDRPFVCAPSSKTGSVTTTYCCNQDHCNKIELPTTVKSSPGLGPVEL
notes: extracellular domain
